From article doi:10.1101/2022.02.17.480751 (bioRxiv, 2022) come the findings set out here.

The target of test [1] is SARS-CoV-2 S receptor-binding domain (RBD, residues 329-538, Wuhan-Hu-1), Strep-tagged (SARS-CoV-2, Wuhan-Hu-1, UniProt P0DTC2). As to the kind of experiment: ELISA.
The target of test [2] is SARS-CoV-2 S1 (residues 1-682, Wuhan-Hu-1), Strep-tagged (SARS-CoV-2, Wuhan-Hu-1, UniProt P0DTC2). As to the kind of experiment: ELISA.

B1: 87G7 human monoclonal antibody (recombinant human IgG1/kappa) (antibody, V domains shown)
VH: EVQLLESGGGLVQPGGSLRLSCVASGFTFSSYVMSWVRQAPGKGLEWVAAISGSGGNTYYADSVKGRFTISRDNSKNTLYLQMNSLRAEDTAVYYCAKEGTYYYGSGSFWGQGTLVTVSS
VL: EIVLTQSPATLSLSPGERATLSCRASQSFHNYLAWYQQKPGRAPRLLIFDASNRATGIPARFSGSGSGTDFTLTISSLEPEDFAVYYCQQRFNWPLTFGGGTKVEIK
Turning to B1, the binding result in test [1] and in test [2] was “binds” in each case.

B2: REGN10987 (recombinant human IgG1/kappa) (antibody, V domains shown)
VH: QVQLVESGGGVVQPGRSLRLSCAASGFTFSNYAMYWVRQAPGKGLEWVAVISYDGSNKYYADSVKGRFTISRDNSKNTLYLQMNSLRTEDTAVYYCASGSDYGDYLLVYWGQGTLVTVSS
VL: QSALTQPASVSGSPGQSITISCTGTSSDVGGYNYVSWYQQHPGKAPKLMIYDVSKRPSGVSNRFSGSKSGNTASLTISGLQSEDEADYYCNSLTSISTWVFGGGTKLTVL
Regarding B2, the binding result in test [2] is listed as “binds”.

B3: REGN10933 (recombinant human IgG1/kappa) (antibody, V domains shown)
VH: QVQLVESGGGLVKPGGSLRLSCAASGFTFSDYYMSWIRQAPGKGLEWVSYITYSGSTIYYADSVKGRFTISRDNAKSSLYLQMNSLRAEDTAVYYCARDRGTTMVPFDYWGQGTLVTVSS
VL: DIQMTQSPSSLSASVGDRVTITCQASQDITNYLNWYQQKPGKAPKLLIYAASNLETGVPSRFSGSGSGTDFTFTISGLQPEDIATYYCQQYDNLPLTFGGGTKVEIK
Turning to B3, the binding result in test [2] is given as “binds”.
